The record followed here is patent US20150080315A1.

Test [1] deals with HDAC complex / nucleosome remodeling and deacetylase (NuRD) complex in SNU-398 nuclear extracts. Description: cell-based or functional assay.
Test [2] shares this target. Briefly: fluorescence polarization competition; unlabeled peptide displaces FITC-labeled wild type peptide from complexes in SNU-398 nuclear extracts.

“endogenous SALL4 (SNU-398 cells) (from UniProt Q9UJQ4 1-1053)” had an engraftment of human AML cells treated with wild type peptide in NSG mice in test [1] of 0.5%. The term IC50 denotes the midpoint of a concentration-inhibition curve. On to MSRRKQAKPQHI [wild type 12-AA SALL4 peptide (…), unlabeled], for which, in test [2], the IC50 was 5 µM.
